T1: human FLT3 (human, UniProt P36888 27-541, limits assumed)
T1 construct: Soluble analyte hFLT3 in SPR; also called hFLT3; huFlt3
T1 sequence: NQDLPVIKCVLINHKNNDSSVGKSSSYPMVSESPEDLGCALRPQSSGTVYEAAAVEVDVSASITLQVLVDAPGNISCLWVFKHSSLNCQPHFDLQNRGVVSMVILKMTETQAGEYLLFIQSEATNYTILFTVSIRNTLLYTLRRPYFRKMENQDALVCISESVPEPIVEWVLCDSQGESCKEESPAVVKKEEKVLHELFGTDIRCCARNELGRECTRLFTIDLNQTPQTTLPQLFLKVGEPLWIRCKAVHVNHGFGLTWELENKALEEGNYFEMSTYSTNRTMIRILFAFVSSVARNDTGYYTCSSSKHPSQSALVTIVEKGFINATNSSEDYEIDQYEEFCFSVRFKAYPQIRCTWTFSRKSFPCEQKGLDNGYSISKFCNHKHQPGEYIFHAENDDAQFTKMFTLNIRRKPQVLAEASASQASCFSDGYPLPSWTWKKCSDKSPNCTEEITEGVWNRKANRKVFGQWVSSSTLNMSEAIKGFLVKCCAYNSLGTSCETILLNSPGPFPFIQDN

B1: P1B11 (scFv format) (scFv, not shown: a dimerising Fc or GST; small tags and cut ends)
scFv: QVQLVQSGAEVKKPGSSVKVSCKASGGTFRSFDISWVRQAPGQGLEWMGRIIPILGYANYAQKFQGRVTITADESTSTAYMELSSLRSEDTAVYYCASDLGAPWAGYPFDPWGQGTLVTVSSGGGGSGGGGSGGGGSEIVLTQSPGTLSLSPGERATLSCRASQSVSSSELAWYQQKPGQAPRLLIYDASSRATGIPDRFSGSGSGTDFTLTISRLEPEDFAVYYCQQYDSSPLTFGQGTKVEIK
B2: P1B4 (scFv format) (scFv, not shown: a dimerising Fc or GST; small tags and cut ends)
scFv: QVQLVQSGAEVKKPGSSVKVSCKASGGVFSRYALSWVRQAPGQGLEWMGGIIPMLGFANYAQKFQGRVTITADESTSTAYMELSSLRSEDTAVYYCATLDFGALDYWGQGTLVTVSSGGGGSGGGGSGGGGSEIVLTQSPGTLSLSPGERATLSCRASQSVPNEQLAWYQQKPGQAPRLLIYDASSRATGIPDRFSGSGSGTDFTLTISRLEPEDFAVYYCQQYGSPPLTFGQGTKVEIK
B3: P1A5 (scFv format) (scFv)
scFv: QVQLVQSGAEVKKPGSSVKVSCKASGGVFSRYALSWVRQAPGQGLEWMGGIIPMLGFANYAQKFQGRVTITADESTSTAYMELSSLRSEDTAVYYCATLDFGALDYWGQGTLVTVSSGGGGSGGGGSGGGGSEIVLTQSPGTLSLSPGERATLSCRASQAVDSSDLAWYQQKPGQAPRLLIYDAYTRPSGIPDRFSGSGSGTDFTLTISRLEPEDFAVYYCQQYGSSPLTFGGGTKLEIK
B4: P4C7 (scFv format) (scFv, not shown: a dimerising Fc or GST; small tags and cut ends)
scFv: QVQLVQSGAEVKKPGSSVKVSCKASGGTFSSYTISWVRQAPGQGLEWMGGIIPAFGIANYAQKFQGRVTITADKSTSTAYMELSSLRSEDTAVYYCAKGGSYSLDYFDIWGQGTLVTVSSGGGGSGGGGSGGGGSEIVLTQSPGTLSLSPGERATLSCRASQYVSASLLAWYQQKPGQAPRLLIYGASTRATGIPDRFSGSGSGTDFTLTISRLEPEDFAVYYCQQYARSSTFGQGTKVEIK
B5: P5F7 (scFv format) (scFv)
scFv: EVQLLESGGGLVQPGGSLRLSCAASGFTFSSYAMNWVRQAPGKGLEWVSSISGGGRSTYYADSVKGRFTISRDNSKNTLYLQMNSLRAEDTAVYYCARDLSPSDVGWGYGFDIWGQGTLVTVSSGGGGSGGGGSGGGGSEIVLTQSPATLSLSPGERATLSCRASQSVSSNLAWYQQKPGQAPRLLIYDTFTRATGIPARFSGSGSGTDFTLTISRLEPEDFAVYYCQQYGSSPPTFGQGTRLEIK
B6: P7F9 (scFv format) (scFv)
scFv: EVQLLESGGGLVQPGGSLRLSCAASGFTFSSYAMSWVRQAPGKGLEWVSAIGGSGGSTYYADSVKGRFTISRDNSKNTLYLQMNSLRAEDTAMYYCARDYYAFSDPAYGGMDVWGQGTLVTVSSGGGGSGGGGSGGGGSNFMLTQPHSVSESPGKTVTISCTRSSGSIASNYVQWYQQKPGQAPVLVVYDDSDRPSGIPERFSGSNSGNTATLTISRVEAGDEADYYCQVWDSSSDHWVFGGGTKLTVL
B7: P9B5 (scFv format) (scFv, not shown: a dimerising Fc or GST; small tags and cut ends)
scFv: EVQLLESGGGLVQPGGSLRLSCAASGFIFASYAMSWVRQAPGKGLEWVSEISSSGGSTTYADSVKGRFTISRDNSKNTLYLQMNSLRAEDTAVYYCARDRVMAGLGYDPFDYWGQGTLVTVSSGGGGSGGGGSGGGGSQSVLTQPPSASGTPGQRVTISCSGSSSNIGSNYVYWYQQLPGTAPKLLIYRNNQRPSGVPDRFSGSKSGTSASLAISGLRSEDEADYYCAAWDDSLSGVVFGGGTKLTVL
B8: P7H3 (scFv format) (scFv, not shown: a dimerising Fc or GST; small tags and cut ends)
scFv: EVQLLESGGGLVQPGGSLRLSCAASGFTFSSYAMHWVRQAPGKGLEWVSAISGSGGSTYYADSVKGRFTISRDNSKNTLYLQMNSLRAEDTAVYYCARGTRWWWGDAFDHWGQGTLVTVSSGGGGSGGGGSGGGGSQSVLTQPPSVSVAPGKTARITCGGNNIGSKSVHWYQQKPGQAPVLVIYYDSDRPSGIPERFSGSNSGNTATLTISRVEAGDEADYYCQVWDSSTAWVFGGGTKLTVL
B9: P5A3 (scFv format) (scFv, not shown: a dimerising Fc or GST; small tags and cut ends)
scFv: QVQLVQSGAEVKKPGSSVKVSCKASGGTFSSYYIGWVRQAPGQGLEWMGGIIPWFGTANYAQKFQGRVTITADKSTNTAYMELSSLRSEDTAVYYCAADHHDSPSGYTSGGFDVWGQGTLVTVSSGGGGSGGGGSGGGGSQSALTQPASVSGSPGQSITISCTGTSSDVGGYNYVSWYQQHPGKAPKLMIYEVSKRPSGVPDRFSGSKSGNTASLTVSGLQAEDEADYYCSSYAGSNTVVFGGGTKLTVL
B10: P9F1 (scFv format) (scFv, not shown: a dimerising Fc or GST; small tags and cut ends)
scFv: EVQLLESGGGLVQPGGSLRLSCAASGFIFSSFAMSWVRQAPGKGLEWVSDISGSGASTYYADSVKGRFTISRDNSKNTLYLQMNSLRAEDTAVYYCASASGGSGSYWPYMDPWGQGTLVTVSSGGGGSGGGGSGGGGSQSVLTQPPSASGTPGQRVTISCSGSGSNIGSNYVYWYQQLPGTAPKLLIYRNNQRPSGVPDRFSGSKSGTSASLAISGLRSEDEADYYCAAWDGSLSRPVFGTGTKLTVL
B11: P3E10 (scFv format) (scFv)
scFv: QVQLVQSGAEVKKPGSSVKVSCKASGGTFSSYAIQWVRQAPGQGLEWMGGIVGSWGLANYAQKFQGRVTITTDKSTSTAYMELSSLRSEDTAVYYCATSAFGELASWGQGTLVTVSSGGGGSGGGGSGGGGSEIVLTQSPGTLSLSPGERATLSCRASQSVPSSQLAWYQQKPGQAPRLLIYDASSRATGIPDRFSGSGSGTDFTLTISRLEPEDFAVYYCQQYGSSPLTFGQGTKVEIK
B12: P4H11 (scFv format) (scFv)
scFv: EVQLLESGGGLVQPGGSLRLSCAASGFTFSSYAMNWVRQAPGKGLEWVSSISGGGRSTYYADSVKGRFTISRDNSKNTLYLQMNSLRAEDTAVYYCARDLSPSDVGWGYGFDIWGQGTLVTVSSGGGGSGGGGSGGGGSEIVLTQSPGTLSLSPGERATLSCRASQSVSNTYLAWYQQKPGQAPRLLIYDTSSRATGIPDRFSGSGSGTDFTLTISRLEPEDFAVYYCQQYGSSLTFGQGTKVEIK
B13: P14G2 (scFv format) (scFv)
scFv: EVQLLESGGGLVQPGGSLRLSCAASGFTFSNYVMNWVRQAPGKGLEWVSAISGSGATTYYADSVKGRFTISRDNSKNTLYLQMNSLRAEDTAVYYCVSGLWAGGIWGQGTLVTVSSGGGGSGGGGSGGGGSDIQMTQSPSSLSASVGDRVTITCRASQSISSYLNWYQQKPGKAPKLLIYDASDLQRGVPSRFSGSGSGTDFTLTISSLQPEDFATYYCQQSYNTPWTFGQGTKVEIK

Biological target: T1, human FLT3
Experiment: SPR Biacore T200, 37C; scFv format

B1 and B2 are within 1.5-fold of each other in Kd: 30.3 nM for the first, 27.3 nM for the second.

Going from B3 to B4, the Kd rises from 1.1 nM to 13.6 nM (12-fold). The first binds more tightly here.

First: B5
Second: B6
The Kd of the first is 28-fold lower: 1 nM for the first, 27.7 nM for the second. The first binds more tightly here.

Going from B7 to B8, the Kd falls from 18.1 nM to 9.1 nM (2-fold).

Going from B9 to B10, the Kd falls from 216 nM to 126 nM (1.7-fold). The second binds more tightly here.

B11 and B12 are within 1.5-fold of each other in Kd: 65.1 nM for the first, 58.3 nM for the second.

B13 was tested, and the Kd was 3.3 nM.

B1 and B2 are within 1.5-fold of each other in koff: 0.00257 s⁻¹ for the first, 0.00327 s⁻¹ for the second.

First: B3
Second: B4
The koff of the first is 5.6-fold lower: 0.000292 s⁻¹ for the first, 0.00164 s⁻¹ for the second.

First: B5
Second: B6
The koff of the first is 12-fold lower: 0.000197 s⁻¹ for the first, 0.00241 s⁻¹ for the second.

Going from B7 to B8, the koff rises from 0.000687 s⁻¹ to 0.00187 s⁻¹ (2.7-fold).

Going from B9 to B10, the koff rises from 0.0175 s⁻¹ to 0.0286 s⁻¹ (1.6-fold).

B11 and B12 are within 1.5-fold of each other in koff: 0.0112 s⁻¹ for the first, 0.00933 s⁻¹ for the second.

For B13, the koff was 0.000305 s⁻¹.

B1 and B2 are within 1.5-fold of each other in kon: 84700 M⁻¹ s⁻¹ for the first, 120000 M⁻¹ s⁻¹ for the second.

First: B3
Second: B4
The kon of the first is 2.1-fold higher: 259000 M⁻¹ s⁻¹ for the first, 121000 M⁻¹ s⁻¹ for the second.

First: B5
Second: B6
The kon of the first is 2.2-fold higher: 189000 M⁻¹ s⁻¹ for the first, 87000 M⁻¹ s⁻¹ for the second.

Going from B7 to B8, the kon rises from 38000 M⁻¹ s⁻¹ to 205000 M⁻¹ s⁻¹ (5.4-fold).

First: B9
Second: B10
The kon of the first is 2.8-fold lower: 81000 M⁻¹ s⁻¹ for the first, 226000 M⁻¹ s⁻¹ for the second.

B11 and B12 are within 1.5-fold of each other in kon: 172000 M⁻¹ s⁻¹ for the first, 160000 M⁻¹ s⁻¹ for the second.

In the case of B13, the kon is reported as 93500 M⁻¹ s⁻¹.

B1 and B2 are within 1.5-fold of each other in t1/2: 4.5 min for the first, 3.5 min for the second.

First: B3
Second: B4
The t1/2 of the first is 5.7-fold higher: 40 min for the first, 7 min for the second.

First: B5
Second: B6
The t1/2 of the first is 12-fold higher: 59 min for the first, 4.8 min for the second.

First: B7
Second: B8
The t1/2 of the first is 2.7-fold higher: 16.8 min for the first, 6.2 min for the second.

First: B9
Second: B10
The t1/2 of the first is 1.7-fold higher: 0.7 min for the first, 0.4 min for the second.

B11 and B12 are the same in t1/2: 1 min for the first, 1 min for the second.

B13 was tested, and the t1/2 was 37.9 min.

— patent US12296012 (Pfizer, dated 2025)
